Reference: US20220119534A1 (DRAGONFLY THERAPEUTICS, published 2022)
One block for each binder: values may come before it.

What was measured:
[1] = biological target: T1, human CLEC12A expressed on cells (human, UniProt Q5QGZ9 1-265); assay: flow cytometry on RMA-hCLEC12A cells
T1 construct: Transduced isogenic cells or endogenous expression on AML cells; also called RMA-hCLEC12A; Ba/F3-hCLEC12A
T1 sequence: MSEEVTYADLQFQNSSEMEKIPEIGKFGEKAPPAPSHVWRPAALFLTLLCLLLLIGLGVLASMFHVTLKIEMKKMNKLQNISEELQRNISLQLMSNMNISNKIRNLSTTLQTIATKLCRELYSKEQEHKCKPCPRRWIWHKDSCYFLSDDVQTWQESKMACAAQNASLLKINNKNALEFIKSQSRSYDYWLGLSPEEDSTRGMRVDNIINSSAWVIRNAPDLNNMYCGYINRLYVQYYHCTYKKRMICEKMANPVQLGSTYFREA

[2] = biological target: T2, recombinant human CLEC12A-His (human, UniProt Q5QGZ9 65-265); assay: SPR screening, semi-purified
T2 construct: also called hCLEC12A-His; hCLEC12A
T2 sequence: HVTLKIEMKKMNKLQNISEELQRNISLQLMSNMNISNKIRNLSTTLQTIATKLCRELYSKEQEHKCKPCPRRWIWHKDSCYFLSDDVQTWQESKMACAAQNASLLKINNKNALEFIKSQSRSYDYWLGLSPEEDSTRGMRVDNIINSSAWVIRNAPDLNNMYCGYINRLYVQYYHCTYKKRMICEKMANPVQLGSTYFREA
Protocol: Binding affinities of the 18 semi-purified TriNKETs for hCLEC12A were assessed by SPR in screening.

[3] = biological target: T2, recombinant human CLEC12A-His; assay: SPR, purified murine mAb
[4] = biological target: T3, recombinant cynomolgus CLEC12A-His (cynomolgus monkey, UniProt A0A2K5WXQ4 71-271); assay: SPR, purified murine mAb
T3 construct: also called cCLEC12A-His; cCLEC12A
T3 sequence: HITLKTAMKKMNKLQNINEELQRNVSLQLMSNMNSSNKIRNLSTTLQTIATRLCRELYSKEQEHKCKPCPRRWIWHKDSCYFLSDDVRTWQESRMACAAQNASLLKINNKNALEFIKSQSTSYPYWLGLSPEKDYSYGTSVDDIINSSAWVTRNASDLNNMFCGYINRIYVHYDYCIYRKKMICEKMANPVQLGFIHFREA

[5] = biological target: T4, Human CLEC12A expressed on cells (Ba/F3-hCLEC12A, PL21, HL60) (human, UniProt Q5QGZ9 1-265); assay: cell-based or functional assay
T4 sequence: T1 sequence

[6] = biological target: T4, Human CLEC12A expressed on cells …; assay: cell-based or functional assay; remark: listed apart in the source
[7] = biological target: T1, human CLEC12A expressed on cells; assay: flow cytometry, hCLEC12A+ Ba/F3

B1: F3'-1304 (other)
chain: DIQMTQSPSSLSASVGDRVTITCHASQNINFWLSWYQQKPGKIPKLLIYEASNLHTGVPSRFSGSGSGTRFTLTISSLQPEDIATYYCQQSHSYPLTFGCGTKLEIKGGGGSGGGGSGGGGSGGGGSQLQLQESGPGLVKPSETLSLTCTVSGFSLTNYGLHWIRQPPGKCLEWIGVIWSGGKTDYNPSLKSRVTISKDTSKNQFSLKLSSVQAADTAVYYCAKYDYDDSLDYWGQGTLVTVSSGSDKTHTCPPCPAPELLGGPSVFLFPPKPKDTLMISRTPEVTCVVVDVSHEDPEVKFNWYVDGVEVHNAKTKPREEQYNSTYRVVSVLTVLHQDWLNGKEYKCKVSNKALPAPIEKTISKAKGQPREPRVYTLPPCRDELTKNQVSLTCLVKGFYPSDIAVEWESNGQPENNYKTTPPVLVSDGSFTLYSKLTVDKSRWQQGNVFSCSVMHEALHNHYTQKSLSLSPG
heavy: EVQLVESGGGLVKPGGSLRLSCAASGFTFSSYSMNWVRQAPGKGLEWVSSISSSSSYIYYADSVKGRFTISRDNAKNSLYLQMNSLRAEDTAVYYCARGAPIGAAAGWFDPWGQGTLVTVSSASTKGPSVFPLAPSSKSTSGGTAALGCLVKDYFPEPVTVSWNSGALTSGVHTFPAVLQSSGLYSLSSVVTVPSSSLGTQTYICNVNHKPSNTKVDKKVEPKSCDKTHTCPPCPAPELLGGPSVFLFPPKPKDTLMISRTPEVTCVVVDVSHEDPEVKFNWYVDGVEVHNAKTKPREEQYNSTYRVVSVLTVLHQDWLNGKEYKCKVSNKALPAPIEKTISKAKGQPREPQVCTLPPSRDELTENQVSLTCLVKGFYPSDIAVEWESNGQPENNYKTTPPVLDSDGSFFLYSWLTVDKSRWQQGNVFSCSVMHEALHNHYTQKSLSLSPG
light: DIQMTQSPSSVSASVGDRVTITCRASQGISSWLAWYQQKPGKAPKLLIYAASSLQSGVPSRFSGSGSGTDFTLTISSLQPEDFATYYCQQGVSFPRTFGGGTKVEIKRTVAAPSVFIFPPSDEQLKSGTASVVCLLNNFYPREAKVQWKVDNALQSGNSQESVTEQDSKDSTYSLSSTLTLSKADYEKHKVYACEVTHQGLSSPVTKSFNRGEC
notes: As F3'-1292
EC50 (read off the curve) [1]: ~10 nM
Kd [2]: 2.7 nM
koff [2]: 0.0013 s⁻¹
kon [2]: 480000 M⁻¹ s⁻¹

B2: 15A10.G8 (antibody, V domains shown)
VH: EVQLQESGAELVRSGASIKLSCAASAFNIKDYFIHWVRQRPDQGLEWIGWIDPENDDTEYAPKFQDKATMTADTSSNTAYLQLSSLTSADTAVYYCNALWSRGGYFDYWGQGTTLTVSS
VL: EVLLTQSPAIIAASPGEKVTITCSARSSVSYMSWYQQKPGSSPKIWIYGISKLASGVPARFSGSGSGTYFSFTINNLEAEDVATYYCQQRSYYPFTFGSGTKLEIK
notes: Murine mAb
Kd [3]: 1.6 nM
koff [3]: 0.000494 s⁻¹
kon [3]: 301000 M⁻¹ s⁻¹
Kd [4]: 3.3 nM
koff [4]: 0.000659 s⁻¹
kon [4]: 196000 M⁻¹ s⁻¹

Continued, in another order:

% Max, ADCP activity of M0 macrophages against PL21 cells [5]: 10%
EC50, ADCP activity of M0 macrophages against PL21 cells [5]: 0.02 nM
B3: AB0305 mAb (Humanized 1739 anti-CLEC12A mAb) (antibody, V domains shown)
VH: QLQLQESGPGLVKPSETLSLTCTVSGFSLTNYGLHWIRQPPGKGLEWIGVIWVGGATDYNPSLKSRVTISVDTSKNQFSLKLSSVQAADTAVYYCAKGDYGDTLDYWGQGTLVTVSS
VL: DIQMTQSPSSLSASVGDRVTITCHASQNINFWLSWYQQKPGKAPKLLIYEASNLHTGVPSRFSGSGSGTDFTLTISSLQPEDFATYYCQQSHSYPLTFGSGTKLEIK
EC50, primary NK mediated cytotoxic killing of PL21 cells [6]: 1.85 nM

EC50 (read off the curve) [1]: ~3 nM
EC50 [7]: 14.3 nM
Max MFI [7]: 39700 MFI
B4: hcFAE-A49.CLL1-Merus (bispecific antibody, V domains shown)
VH 1: EVQLVQSGAEVKKPGASVKVSCKASGYTFTSYYMHWVRQAPGQGLEWMGIINPSGGSTSYAQKFQGRVTMTRDTSTSTVYMELSSLRSEDTAVYYCARGNYGDEFDYWGQGTLVTVSS
VL 1: not shown
VH 2: EVQLVESGGGLVKPGGSLRLSCAASGFTFSSYSMNWVRQAPGKGLEWVSSISSSSSYIYYADSVKGRFTISRDNAKNSLYLQMNSLRAEDTAVYYCARGAPMGAAAGWFDPWGQGTLVTVSS
VL 2: DIQMTQSPSSVSASVGDRVTITCRASQGISSWLAWYQQKPGKAPKLLIYAASSLQSGVPSRFSGSGSGTDFTLTISSLQPEDFATYYCQQGVSFPRTFGGGTKVEIK
notes: Duobody TriNKET: CLEC12A Fab of Merus CLL1 and NKG2D Fab A49; also called hcFAE-A49.CLL-Merus; control CLEC12A-TriNKET
